How the values were obtained:
[1] = target: sapC-PUMA chimera (saposin C linked to the BH3 domain of PUMA); assay: NMR titration; [1H-15N]-SOFAST-HMQC at 298 K, 600 MHz; 15N-labelled chimera at 100 µM mixed with unlabeled Bcl-xL-ΔTM (stock 900 µM, pH 6.8) at chimera:Bcl-xL molar ratios 1:0, 1:0.5, 1:1, 1:2; 10% D2O; slow exchange, the upper limit of KD estimated from the chemical shift difference assuming diffusion-controlled kon
Bcl-xL (Homo sapiens) = Bcl-xL (Homo sapiens) (UniProt Q07817); assay: isothermal titration calorimetry; details: cited from earlier work
Chain of Bcl-xL (Homo sapiens) (Q07817 whole entry): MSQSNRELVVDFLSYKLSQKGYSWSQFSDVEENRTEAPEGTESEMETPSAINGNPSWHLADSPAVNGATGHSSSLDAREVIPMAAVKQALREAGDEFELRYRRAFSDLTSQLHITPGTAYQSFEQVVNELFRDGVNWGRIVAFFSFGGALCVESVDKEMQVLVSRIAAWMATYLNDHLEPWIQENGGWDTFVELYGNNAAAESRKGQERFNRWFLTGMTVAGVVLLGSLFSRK

Chain of sapC-PUMA chimera (saposin C linked to the BH3 domain of PUMA) (P07602 other isoform, or with tags, fused parts or gaps mutant): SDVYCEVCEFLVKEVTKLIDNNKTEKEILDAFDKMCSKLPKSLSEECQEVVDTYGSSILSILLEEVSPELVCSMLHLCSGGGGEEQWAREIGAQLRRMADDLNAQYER
Chain of PUMA BH3 (Q9BXH1 130-156): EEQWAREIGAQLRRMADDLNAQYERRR

For “Human Bcl-xL-ΔTM (native amino acid sequence without the transmembrane domain) (domain or fragment)”, the stoichiometry N [1] was 1.
For PUMA BH3 (from UniProt Q9BXH1), the Kd (Bcl-xL (Homo sapiens)) is given as 3 nM.

From paper PMC8072984
